Abundance fitness data for 57 variants are collected here from the Human Domainome abundance scans (Beltran et al. 2025).

Sequences and labels used below:
B1: Tripartite motif-containing protein 44, residues 174 to 218; numbered along this chain, Q96DX7 (parent)
chain: VAKRKCPDHGLDLSTYCQEDRQLICVLCPVIGAHQGHQLSTLDEA

± gives the uncertainty stated by the source.

In the data set the parent is B1. The data set can be described thus: abundance fitness (aPCA) (normalised: wild type 0, dead -1); higher = more abundant; growth selection in yeast, the domain comes from the species named. The following applies: Homo sapiens.
VAKRKCPDHGLDLSTYCHEDRQLICVLCPVIGAHQGHQLSTLDEA [Q18H]: the abundance fitness stood at 0.035 ± 0.072.
To VAKRKCPDHGLDLSTYCNEDRQLICVLCPVIGAHQGHQLSTLDEA [Q18N] belongs -0.01 ± 0.06; to VAKRKCPDHGLDLSTYCMEDRQLICVLCPVIGAHQGHQLSTLDEA [Q18M], -0.01 ± 0.041.
To VAKRKCPDHGLDLSTYCGEDRQLICVLCPVIGAHQGHQLSTLDEA [Q18G] belongs -0.111 ± 0.026.
The figure for VAKRKCPDHGLDLSTYCWEDRQLICVLCPVIGAHQGHQLSTLDEA [Q18W] is -0.189 ± 0.031; for VAKRKCPDHGLDLSTYCPEDRQLICVLCPVIGAHQGHQLSTLDEA [Q18P] it is -0.038 ± 0.04.
For VAKRKCPDHGLDLSTYCREDRQLICVLCPVIGAHQGHQLSTLDEA [Q18R], the abundance fitness was -0.043 ± 0.026.
For VAKRKCPDHGLDLSTYCSEDRQLICVLCPVIGAHQGHQLSTLDEA [Q18S], the abundance fitness was -0.015 ± 0.031.
The figure for VAKRKCPDHGLDLSTYCFEDRQLICVLCPVIGAHQGHQLSTLDEA [Q18F] is -0.109 ± 0.048; for VAKRKCPDHGLDLSTYCAEDRQLICVLCPVIGAHQGHQLSTLDEA [Q18A] it is -0.021 ± 0.026.
For the variant VAKRKCPDHGLDLSTYCIEDRQLICVLCPVIGAHQGHQLSTLDEA [Q18I], the abundance fitness is -0.058 ± 0.1.
To VAKRKCPDHGLDLSTYCVEDRQLICVLCPVIGAHQGHQLSTLDEA [Q18V] belongs -0.086 ± 0.028; to VAKRKCPDHGLDLSTYCDEDRQLICVLCPVIGAHQGHQLSTLDEA [Q18D], 0.009 ± 0.039.
On to VAKRKCPDHGLDLSTYCYEDRQLICVLCPVIGAHQGHQLSTLDEA [Q18Y], for which the abundance fitness came out at 0.08 ± 0.066.
To VAKRKCPDHGLDLSTYCTEDRQLICVLCPVIGAHQGHQLSTLDEA [Q18T] belongs -0.06 ± 0.034; to VAKRKCPDHGLDLSTYCEEDRQLICVLCPVIGAHQGHQLSTLDEA [Q18E], 0.008 ± 0.03; to VAKRKCPDHGLDLSTYCCEDRQLICVLCPVIGAHQGHQLSTLDEA [Q18C], -0.041 ± 0.037.
In the case of VAKRKCPDHGLDLSTYCLEDRQLICVLCPVIGAHQGHQLSTLDEA [Q18L], the abundance fitness is -0.061 ± 0.029.
The figure for VAKRKCPDHGLDLSTYCKEDRQLICVLCPVIGAHQGHQLSTLDEA [Q18K] is 0.037 ± 0.043.
To VAKRKCPDHGLDLSTYCQNDRQLICVLCPVIGAHQGHQLSTLDEA [E19N] belongs -0.033 ± 0.04; to VAKRKCPDHGLDLSTYCQMDRQLICVLCPVIGAHQGHQLSTLDEA [E19M], -0.108 ± 0.032; to VAKRKCPDHGLDLSTYCQPDRQLICVLCPVIGAHQGHQLSTLDEA [E19P], -0.198 ± 0.035.
On to VAKRKCPDHGLDLSTYCQCDRQLICVLCPVIGAHQGHQLSTLDEA [E19C], for which the abundance fitness was -0.063 ± 0.034.
To VAKRKCPDHGLDLSTYCQVDRQLICVLCPVIGAHQGHQLSTLDEA [E19V] belongs -0.06 ± 0.027.
To VAKRKCPDHGLDLSTYCQRDRQLICVLCPVIGAHQGHQLSTLDEA [E19R] belongs -0.098 ± 0.027.
Take VAKRKCPDHGLDLSTYCQSDRQLICVLCPVIGAHQGHQLSTLDEA [E19S]: the abundance fitness was -0.048 ± 0.028.
As for VAKRKCPDHGLDLSTYCQYDRQLICVLCPVIGAHQGHQLSTLDEA [E19Y], the abundance fitness is -0.082 ± 0.058.
To VAKRKCPDHGLDLSTYCQWDRQLICVLCPVIGAHQGHQLSTLDEA [E19W] belongs -0.153 ± 0.028; to VAKRKCPDHGLDLSTYCQGDRQLICVLCPVIGAHQGHQLSTLDEA [E19G], -0.093 ± 0.025.
To VAKRKCPDHGLDLSTYCQQDRQLICVLCPVIGAHQGHQLSTLDEA [E19Q] belongs -0.062 ± 0.031.
To VAKRKCPDHGLDLSTYCQDDRQLICVLCPVIGAHQGHQLSTLDEA [E19D] belongs 0.045 ± 0.039.
VAKRKCPDHGLDLSTYCQADRQLICVLCPVIGAHQGHQLSTLDEA [E19A]: the abundance fitness was -0.045 ± 0.027.
For the variant VAKRKCPDHGLDLSTYCQFDRQLICVLCPVIGAHQGHQLSTLDEA [E19F], the abundance fitness was -0.097 ± 0.05.
For VAKRKCPDHGLDLSTYCQIDRQLICVLCPVIGAHQGHQLSTLDEA [E19I], the abundance fitness is -0.063 ± 0.065.
Take VAKRKCPDHGLDLSTYCQLDRQLICVLCPVIGAHQGHQLSTLDEA [E19L]: the abundance fitness is -0.081 ± 0.027.
To VAKRKCPDHGLDLSTYCQHDRQLICVLCPVIGAHQGHQLSTLDEA [E19H] belongs -0.032 ± 0.045; to VAKRKCPDHGLDLSTYCQTDRQLICVLCPVIGAHQGHQLSTLDEA [E19T], -0.01 ± 0.037; to VAKRKCPDHGLDLSTACQEDRQLICVLCPVIGAHQGHQLSTLDEA [Y16A], -0.266 ± 0.028.
For the variant VAKRKCPDHGLDLSTICQEDRQLICVLCPVIGAHQGHQLSTLDEA [Y16I], the abundance fitness was 0.127 ± 0.1.
With VAKRKCPDHGLDLSTKCQEDRQLICVLCPVIGAHQGHQLSTLDEA [Y16K], the abundance fitness is -0.059 ± 0.037.
As to VAKRKCPDHGLDLSTGCQEDRQLICVLCPVIGAHQGHQLSTLDEA [Y16G], the abundance fitness is -0.373 ± 0.027.
The figure for VAKRKCPDHGLDLSTCCQEDRQLICVLCPVIGAHQGHQLSTLDEA [Y16C] is -0.132 ± 0.043.
To VAKRKCPDHGLDLSTHCQEDRQLICVLCPVIGAHQGHQLSTLDEA [Y16H] belongs -0.053 ± 0.041; to VAKRKCPDHGLDLSTTCQEDRQLICVLCPVIGAHQGHQLSTLDEA [Y16T], 0.029 ± 0.036.
Regarding VAKRKCPDHGLDLSTSCQEDRQLICVLCPVIGAHQGHQLSTLDEA [Y16S], the abundance fitness was -0.16 ± 0.031.
To VAKRKCPDHGLDLSTVCQEDRQLICVLCPVIGAHQGHQLSTLDEA [Y16V] belongs -0.052 ± 0.028; to VAKRKCPDHGLDLSTECQEDRQLICVLCPVIGAHQGHQLSTLDEA [Y16E], -0.033 ± 0.031; to VAKRKCPDHGLDLSTQCQEDRQLICVLCPVIGAHQGHQLSTLDEA [Y16Q], -0.029 ± 0.035.
Regarding VAKRKCPDHGLDLSTDCQEDRQLICVLCPVIGAHQGHQLSTLDEA [Y16D], the abundance fitness was -0.276 ± 0.037.
On to VAKRKCPDHGLDLSTFCQEDRQLICVLCPVIGAHQGHQLSTLDEA [Y16F], for which the abundance fitness was -0.069 ± 0.043.
The figure for VAKRKCPDHGLDLSTPCQEDRQLICVLCPVIGAHQGHQLSTLDEA [Y16P] is -0.379 ± 0.038.
The figure for VAKRKCPDHGLDLSTMCQEDRQLICVLCPVIGAHQGHQLSTLDEA [Y16M] is -0.011 ± 0.031; for VAKRKCPDHGLDLSTRCQEDRQLICVLCPVIGAHQGHQLSTLDEA [Y16R] it is -0.043 ± 0.028; for VAKRKCPDHGLDLSTWCQEDRQLICVLCPVIGAHQGHQLSTLDEA [Y16W] it is -0.039 ± 0.03.
To VAKRKCPDHGLDLSTLCQEDRQLICVLCPVIGAHQGHQLSTLDEA [Y16L] belongs -0.054 ± 0.031.
Consider VAKRKCPDHGLDLSTNCQEDRQLICVLCPVIGAHQGHQLSTLDEA [Y16N], for which the abundance fitness was -0.167 ± 0.049.
Take VAKRKCPDHGLDLSTYNQEDRQLICVLCPVIGAHQGHQLSTLDEA [C17N]: the abundance fitness was -0.701 ± 0.15.
